Changes are numbered by the printed parent chain.

T1: mouse TNFR1 (recombinant, R&D Systems cat no. 425-R1-050/CF, biotinylated) (mouse, UniProt P25118 22-212, biotinylated with EZ-Link NHS-LC-LC-biotin)
T1 construct: also called murine TNFR1; biotinylated mouse TNFR1
T1 sequence (looked up): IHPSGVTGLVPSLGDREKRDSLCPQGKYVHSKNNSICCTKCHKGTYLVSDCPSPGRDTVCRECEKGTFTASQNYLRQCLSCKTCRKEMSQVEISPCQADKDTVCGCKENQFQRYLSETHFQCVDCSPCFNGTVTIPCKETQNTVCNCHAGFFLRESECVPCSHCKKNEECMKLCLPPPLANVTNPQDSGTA

T2: mouse TNFR1 on L929 cells (mouse, UniProt P25118 30-454)
T2 sequence (looked up): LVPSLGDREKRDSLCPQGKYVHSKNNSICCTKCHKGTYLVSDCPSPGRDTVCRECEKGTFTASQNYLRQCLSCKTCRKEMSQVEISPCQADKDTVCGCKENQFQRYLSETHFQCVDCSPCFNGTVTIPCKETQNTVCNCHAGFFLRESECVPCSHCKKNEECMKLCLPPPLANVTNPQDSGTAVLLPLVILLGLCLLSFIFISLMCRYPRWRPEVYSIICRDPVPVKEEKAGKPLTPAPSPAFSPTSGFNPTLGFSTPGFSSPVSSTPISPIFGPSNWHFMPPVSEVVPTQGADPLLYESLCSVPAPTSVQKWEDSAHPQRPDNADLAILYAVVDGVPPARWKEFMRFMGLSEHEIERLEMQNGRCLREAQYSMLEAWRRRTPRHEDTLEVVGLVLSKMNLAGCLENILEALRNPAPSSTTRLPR

T3: human TNFR1 on MRC-5 cells (human, UniProt P19438 30-455)
T3 sequence (looked up): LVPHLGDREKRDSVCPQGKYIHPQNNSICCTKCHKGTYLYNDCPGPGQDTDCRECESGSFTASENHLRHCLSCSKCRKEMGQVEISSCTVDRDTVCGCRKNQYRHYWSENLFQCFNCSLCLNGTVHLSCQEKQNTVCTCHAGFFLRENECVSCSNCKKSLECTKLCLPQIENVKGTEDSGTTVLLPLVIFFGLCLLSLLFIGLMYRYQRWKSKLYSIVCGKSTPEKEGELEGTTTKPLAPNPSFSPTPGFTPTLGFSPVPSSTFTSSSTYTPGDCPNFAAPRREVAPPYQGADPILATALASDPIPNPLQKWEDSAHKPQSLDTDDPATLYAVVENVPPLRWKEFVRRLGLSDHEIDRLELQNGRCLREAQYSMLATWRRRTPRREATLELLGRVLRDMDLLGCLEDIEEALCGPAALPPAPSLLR

T4: Cynomologus monkey TNFR1 on CYNOM-K1 cells (Cynomolgus monkey, UniProt Q2PFV5 30-455)
T4 sequence: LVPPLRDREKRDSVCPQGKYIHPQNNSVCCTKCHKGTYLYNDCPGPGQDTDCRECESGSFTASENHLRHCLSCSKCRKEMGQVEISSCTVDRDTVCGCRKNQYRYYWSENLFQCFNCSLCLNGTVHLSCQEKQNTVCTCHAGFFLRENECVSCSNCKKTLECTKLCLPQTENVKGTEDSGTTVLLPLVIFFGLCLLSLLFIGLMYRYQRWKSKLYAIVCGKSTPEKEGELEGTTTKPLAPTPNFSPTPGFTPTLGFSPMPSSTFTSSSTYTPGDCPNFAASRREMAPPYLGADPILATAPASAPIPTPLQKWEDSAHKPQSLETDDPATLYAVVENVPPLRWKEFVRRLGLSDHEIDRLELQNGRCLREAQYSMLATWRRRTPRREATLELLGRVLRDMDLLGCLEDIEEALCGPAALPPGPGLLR

T5: human TNFR1 (recombinant, R&D Systems cat no. 636-R1/CF, biotinylated) (human, UniProt P19438 30-211, limits assumed, biotinylated with EZ-Link NHS-LC-LC-biotin)
T5 construct: it is not tied to the BIAcore reagent; also called p55; hTNFR1
T5 sequence (looked up): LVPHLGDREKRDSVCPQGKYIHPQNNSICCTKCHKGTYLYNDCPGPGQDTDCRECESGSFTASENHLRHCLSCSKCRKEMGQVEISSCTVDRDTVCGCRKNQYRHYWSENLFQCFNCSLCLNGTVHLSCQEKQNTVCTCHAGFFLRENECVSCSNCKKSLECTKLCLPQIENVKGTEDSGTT

B1: DOM1h-574-72 (other)
VH: EVQLLESGGGLVQPGGSLRLSCAASGFTFVKYSMGWVRQAPGKGLEWVSQISNTADRTYYAHSVKGRFTISRDNSKNTLYLQMNSLRAEDTAVYYCAIYTGRWVPFEYWGQGTLVTVSS
notes: VH dAb; expressed in E. coli, purified on Protein A
B2: DOM1h-574-109 (other)
VH: B1 VH with N53D
notes: VH dAb
B3: DOM1h-574-135 (other)
VH: B1 VH with N53D, A61T
notes: VH dAb
B4: DOM1h-574-138 (other)
VH: B1 VH with V30F, N53D, V104A
notes: VH dAb
B5: DOM1h-574-139 (other)
VH: B1 VH with V30L, N53D, V104A
notes: VH dAb
B6: DOM1h-574-133 (other)
VH: B1 VH with N53D, A61D, V104E, E107V
notes: VH dAb
B7: DOM1h-574-155 (other)
VH: B1 VH with V30L, N53D
notes: VH dAb
B8: DMS0186 (bispecific antibody)
chain: EVQLLESGGGLVQPGGSLRLSCAASGFTFVKYSMGWVRQAPGKGPEWVSQISNTGDRTYYADSVKGRFTISRDNSKNTLYLQMNSLRAEDTAVYYCAIYTGRWEPFDYWGQGTLVTVSSASTDIQMTQSPSSLSASVGDRVTITCRASRPIGTMLSWYQQKPGKAPKLLILFGSRLQSGVPSRFSGSGSGTDFTLTISSLQPEDFATYYCAQAGTHPTTFGQGTKVEIKRAAAEQKLISEEDLN
notes: anti-TNFR1 dAb / AlbudAb in-line fusion

One assay deals with T1, mouse TNFR1 (recombinant, R&D Systems …). Description: BIAcore, mouse TNFR1 on SA chip. An excerpt: (§1) BIAcore was done to determine the association and dissociation rates of the different dAbs and in that way establish their binding affinity for both human and mouse TNFR1. Experiments were done using biotinylated TNFR1 (R&D Systems), of the respective species, coupled to streptavidin-coated BIAcore chips followed by injection of a concentration range of the dAbs.
Background: SPR reads the build-up and loss of mass on a sensor chip optically.
The Kd is the constant that tells how readily two partners part at equilibrium. The koff is the first-order rate constant of dissociation. Usually kon stands for the second-order rate constant of association. Consider B1, for which the Kd is 6.9 nM, the dissociation rate constant (koff) was found to be 0.00068 s⁻¹ and the on-rate (kon) turned out to be 100000 M⁻¹ s⁻¹.
The matching figures for B2: 2.8 nM, 0.00033 s⁻¹ and 120000 M⁻¹ s⁻¹.
The matching figures for B3: 3.8 nM, 0.00045 s⁻¹ and 110000 M⁻¹ s⁻¹.
The matching figures for B4: 2.4 nM, 0.0003 s⁻¹ and 130000 M⁻¹ s⁻¹.
For B5, the Kd stood at 4.4 nM, the koff was 0.0003 s⁻¹ and the kon is 70000 M⁻¹ s⁻¹.
The matching figures for B6: 5.2 nM, 0.00075 s⁻¹ and 140000 M⁻¹ s⁻¹.
The matching figures for B7: 3.7 nM, 0.00033 s⁻¹ and 110000 M⁻¹ s⁻¹.

In a further assay the target is T2, mouse TNFR1 on L929 cells. Description: cell-based or functional assay.
B1: the “Mouse L929 ND50” value is 46 nM.
For the molecule B2, the “Mouse L929 ND50” value worked out at 20 nM.
On the same count and under the same terms, for B3 the value was 47 nM.
For B4, the “Mouse L929 ND50” value came out at 23 nM.
For the molecule B5, the “Mouse L929 ND50” value worked out at 28 nM.
On the same count and under the same terms, for B6 the value was 110 nM; for B7, 67 nM.

Another assay addresses T3, human TNFR1 on MRC-5 cells. Briefly: cell-based or functional assay.
For the molecule B1, the “Human MRC5 ND50” value was found to be 2.7 nM.
Same read-out and setting: for B2 the value was 1.8 nM.
The same measure, in the same setting: for B3 the value was 1.8 nM; for B4, 1.4 nM.
Same read-out and setting: for B5 the value was 1.1 nM; for B6, 2.1 nM; for B7, 2.1 nM.

Another assay addresses T4, Cynomologus monkey TNFR1 on CYNOM-K1 …. Briefly: cell-based or functional assay.
Consider B1, for which the “Cynomologus CYNOM-K1 ND50” value was determined as 2.3 nM.
Still for that read-out and setting: for B2 the value was 2.3 nM; for B3, 1.5 nM.
Consider B4, for which the “Cynomologus CYNOM-K1 ND50” value was 1.2 nM.
The same measure, in the same setting: for B5 the value was 1.8 nM; for B6, 1.7 nM; for B7, 1.6 nM.

In another assay the target is T3, human TNFR1 on MRC-5 cells. Briefly: cell-based or functional assay. The source holds these as a separate data set.
Regarding B8, the “ND50 (MRC5)” value was 20 nM.

For the next assay, the target named is T6, human serum albumin (HSA, Sigma-Aldrich) (human, UniProt P02768 25-609).
T6 construct: also called human albumin
T6 sequence (P02768 25-609 limits assumed): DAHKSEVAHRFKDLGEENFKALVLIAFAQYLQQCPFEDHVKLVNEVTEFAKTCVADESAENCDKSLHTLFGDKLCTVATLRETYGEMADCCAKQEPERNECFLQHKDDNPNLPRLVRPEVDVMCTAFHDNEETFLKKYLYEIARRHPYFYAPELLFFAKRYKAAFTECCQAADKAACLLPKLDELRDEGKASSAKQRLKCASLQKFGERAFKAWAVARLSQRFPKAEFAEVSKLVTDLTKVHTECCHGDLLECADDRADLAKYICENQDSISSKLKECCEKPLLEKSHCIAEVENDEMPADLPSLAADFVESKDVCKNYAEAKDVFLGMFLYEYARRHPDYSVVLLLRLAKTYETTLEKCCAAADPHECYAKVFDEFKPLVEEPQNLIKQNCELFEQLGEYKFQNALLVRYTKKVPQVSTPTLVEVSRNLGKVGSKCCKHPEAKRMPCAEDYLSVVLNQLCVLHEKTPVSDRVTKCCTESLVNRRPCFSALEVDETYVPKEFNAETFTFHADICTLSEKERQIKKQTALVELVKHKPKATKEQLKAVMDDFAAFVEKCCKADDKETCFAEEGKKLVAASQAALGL
Briefly: BIAcore, HSA on CM5 chip. As to the method: FIG. 23. BIAcore analysis for binding of DOM0100-AlbudAb in-line fusions to human serum albumin (HSA). HSA (Sigma-Aldrich) was coated on a BIAcore CM5 chip using EDC/NHS chemistry according to manufacturer's instructions. Subsequently, the DMS constructs, each consisting N-terminally to C-terminally of an anti-TNFR1 dAb-Linker-AlbudAb and identified in Table 6, were injected at 1 μM over the HSA surface and binding was monitored. […] The corresponding BIAcore trace for each DMS clone is indicated with an arrow.
The molecule B8 came in with a koff of 0.12 s⁻¹.

A further assay concerns the target T5, human TNFR1 (recombinant, R&D Systems …). Description: BIAcore T100, biotinylated human TNFR1 on chip. On the procedure:
Furthermore, the affinity and potency of the purified fusion molecules were determined using a BIAcore T100 and the MRC5 cell assay, respectively. The BIAcore T100 is a highly sensitive BIAcore version ideally suited for determination of high affinity binders (Papalia et al., Anal Biochem. 359, p 112 (2006)). Biotinylated, human TNFR1 was coated on the chip and each of the twelve AlbudAb fusions were passed over this surface at four different concentrations (2, 10, 50 and 250 nM). […] This improvement is observed regardless of the AlbudAb used for pairing and largest for the pairings with DOM7h-14-18. A second experiment used to establish if the different pairings affected the functional activity of the anti-TNFR1 dAb was the MRC5 cell assay (Table 8). A more marked difference between the pairings is observed in the MRC5 assay, in which the best potencies are observed in pairings with DOM7h-11-3 and DOM7h-11-12 while pairings with DOM7h-14-10 (DMS0117) lead to significant decreases in potency.
For B1, the Kd worked out at 0.53 nM, the off-rate constant (koff) is 0.00011 s⁻¹ and the kon is 200000 M⁻¹ s⁻¹.

A further assay addresses T7, mouse serum albumin (MSA, Sigma-Aldrich) (mouse, UniProt P07724 25-608).
T7 construct: also called mouse albumin
Briefly: BIAcore, MSA on CM5 chip. As to the method:
FIG. 22. BIAcore analysis for binding of DOM0100-AlbudAb in-line fusions to mouse serum albumin (MSA). MSA (Sigma-Aldrich) was coated on a BIAcore CM5 chip using EDC/NHS chemistry according to manufacturer's instructions. Subsequently, the DMS constructs, each consisting N-terminally to C-terminally of an anti-TNFR1 dAb-Linker-AlbudAb and identified in Table 6, were injected at 1 μM over the MSA surface and binding was monitored. […] The corresponding BIAcore trace for each DMS clone is indicated with an arrow.
After expression and purification, all constructs were tested on the BIAcore for binding to both mouse and human serum albumin. The off-rates were determined and used to discriminate between the AlbudAbs for their suitability in prolonging the half-life of the fusion molecule. Whereas the linker had little influence on the affinity of the AlbudAb for albumin, a significant difference existed between the dAbs and their albumin affinity. The best AlbudAb for mouse binding was DOM7h-11-15 followed by DOM7m-16 and DOM7h-11-12 (FIG. 22).
B8: the koff was determined as 0.08 s⁻¹.

The next assay deals with T5, human TNFR1 (recombinant, R&D Systems …). Briefly: BIAcore, human TNFR1 on SA chip.
Text: as §1
On to B1, for which the Kd was determined as 0.35 nM, the koff was determined as 8.4e-05 s⁻¹ and the kon is 250000 M⁻¹ s⁻¹.
The matching figures for B2: 0.23 nM, 5.5e-05 s⁻¹ and 240000 M⁻¹ s⁻¹.
For B3, the dissociation constant (Kd) is 0.21 nM, the koff stood at 5.2e-05 s⁻¹ and the kon stood at 250000 M⁻¹ s⁻¹.
In the case of B4, the Kd was determined as 0.15 nM, the koff came to 3.8e-05 s⁻¹ and the association rate constant (kon) is 250000 M⁻¹ s⁻¹.
With B5, the Kd amounted to 0.27 nM, the koff is 3.7e-05 s⁻¹ and the kon is 140000 M⁻¹ s⁻¹.
The matching figures for B6: 0.34 nM, 8.8e-05 s⁻¹ and 260000 M⁻¹ s⁻¹.
The matching figures for B7: 0.18 nM, 4.3e-05 s⁻¹ and 240000 M⁻¹ s⁻¹.

For another assay, the target named is T3, human TNFR1 on MRC-5 cells. Briefly: cell-based or functional assay. The source holds these as a separate data set.
Turning to B1, the “MRC5 (ND50 in nM)” value was determined as 2.7 nM.

(Values after patent publication US20120107330A1 (published 2012).)
